Values of other authors, collected in patent publication US20090291133A1, “METHODS AND COMPOSTIONS FOR ENHANCING TRANSDERMAL DRUG DELIVERY” (NATIONAL HEALTH RESEARCH INSTITUTES, priority 2008, published 2009).
Like-named read-outs stand apart in the source and are kept apart here.

Settings: reported in US005534260A

B1: papain (protein, UniProt P00784 134-345, looked up)
Papain: IPEYVDWRQKGAVTPVKNQGSCGSCWAFSAVVTIEGIIKIRTGNLNEYSEQELLDCDRRSYGCNGGYPWSALQLVAQYGIHYRNTYPYEGVQRYCRSREKGPYAAKTDGVRQVQPYNEGALLYSIANQPVSVVLEAAGKDFQLYRGGIFVGPCGNKVDHAVAAVGYGPNYILIKNSWGTGWGENGYIRIKRGTGNSYGVCGLYTSSFYPVKN
notes: proteolytic enzyme used as permeability enhancer
Equivalent in solution
  safe concentration of papain: 4 µM
  safe concentration of papain: around 0.093 mg/ml
